From paper PMC9388160, “A multidomain connector links the outer membrane and cell wall in phylogenetically deep-branching bacteria” (Proceedings of the National Academy of Sciences of the …, 2022) come the findings set out here.

One series concerns the target DR_0644 (uncharacterized protein, UniProt Q9RWM2) (D. radiodurans). Put plainly: cryo-EM structure; single-particle cryo-EM of SlpA purified from D. radiodurans, in 20 mM Hepes/NaOH pH 7.5, 150 mM NaCl, 0.02% DDM; 4.45 mg/mL; C3 symmetry; global resolution 3.25 Å.
Series [1] concerns the molecule itself. The description is as above.

The stoichiometry N is the number of molecules, sites or subunits per partner or assembly.

Regarding “DR_0644 (uncharacterized protein, UniProt Q9RWM2) (natural protein)”, in the series with DR_0644, the stoichiometry N worked out at 3.

B1: SlpA (Deinococcus radiodurans outer membrane protein, UniProtKB Q9RRB6) (natural protein, D. radiodurans, UniProt Q9RRB6 23-1167, looked up)
chain: APVSAPQVPALTDVPAGHWAKDAIDRLVSRGVILGYPDGTFRGTQNLTRYEAAIIIARLLDQMRDGETPAGMTAEDMTALQNAIQELAADLAALGVRVSDLEANAVSKDDFARLEARIEEVAAAGGEQGATEALQGQIDDLTARVDEYDALRADVDDNASSIAALNDLTVLLNQDILDLQDRVSAVEAAQADFVQRSDFDALGGRVTTVETRVETVNNSLTGRIAALERNAFSVKPSLTIGYSVSRTSRNFDVDRLFPLNADGTVANNAFTSGGIDTDTGAQRRDFGDFGNASDPVVAGAAGLYGFADGVSYTVYFTDGSTATFDGLNPADYKVPTGKVIDTTKGRNGFGFNNLARYKEGSTDIGISLGFDTSGQFSQVTSGTGGSLFSTAGRLQVNQIDLNFGLVTGLPSDAYVDTNGNGKKDDGEATGRGTYLGSGGTAAILRDPAGNVYRPVFFRFKNATTQFSVGNNPVIVTLGQQQKFYFSDYVFDNNYDGRGDGFTVTVDGSNVPVIGAWKPQIKGVYGSRSGLDGTAEAGYGVYYRGVRAQITPVGTLTAGIHYAQEGRDMFGAAQNTTSTPSDVTTYGADLHGKAFGVELHSEYATSRVRPNTANAAVQTSNAFYARVATRKDNLAFDLNTPAAKFGNDTFGVSLYDLNYRKIDAGYNNVAGISEYGYGSYSRTSAQNIAYNPDTGVTAPFANLDRQAYTDANNDGTSDRNADGTVVATNTKIGQMGFGVKAAANLGPVAIGGYYDTSTGANGDNANRMTEAGGSAKVAYSIFSLRGTYNTLDSNRPQIYRDAAGTQIIGDAKVRRYAVQADVTPGLGLFVGAYYRDVNVNGVRSTTDRGLLGRGYLASSFEPGVGNNAYRTGLRCADNNFGTGTRDIDGVGGVLNPAVNLDQSRTATCFTSYGVEAGHAGDNANALVKDLFFRVGYSRVYVPTTATATTGDFSGSVTYGDARYDRKVGVANVRLAGSFSTTNTQLDSRPAGTRGAVGLIVRTDPLENVPFRPQFNGQVGYYTADNRVAAGNYNANATKYGAGVVLNDFLLPQTKIGVRYDGYMAQNRQYTPFDGDGTQGYFSDANNNRRTNLNGVYVEGAYQDLIFSYGTYTLSQKDLNGVEYGSGINNGQPARGQTFKISYKVNF
notes: SlpA, D. radiodurans, UniProtKB Q9RRB6; wild-type protein purified from the bacterium; The map is well resolved from residue 215 onwards; Native, untagged protein in DDM micelles; it models the periplasmic segment from residue 20; also called SlpA protein complex; SlpA trimer; source: purified from D. radiodurans (ATCC BAA816): lysozyme treatment, DDM extraction, HiTrap-Q, Superose 6 Increase
Take B1: in series [1], the “stoichiometry N” value is 3.
